Test [1] concerns the target T1, human BCMA-Fc/His (1-51) (human, UniProt Q02223 1-51).
T1 construct: also called recombinant human BCMA-Fc/His; recombinant human BCMA-His (Sino Biological Inc.); not shown: Fc region; C-terminal His tag
T1 sequence: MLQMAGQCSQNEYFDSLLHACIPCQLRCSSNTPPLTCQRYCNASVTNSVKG
As to the kind of experiment: BLI (Octet), antigen on Ni-NTA biosensor, IgG in solution. On the procedure: A 96-well black microplate was mounted on a Biosensor tray case, 200 μl of 1XKB was added to each of the 8 wells, and then 8 Ni-NTA biosensors (Fortebio) were inserted thereto for hydration for 10 minutes. For antigen fixation, 5 μg/ml of recombinant human BCMA-His (Sino Biological Inc.) was diluted using 1XKB. Experiments were performed with a threshold of 0.5 to 1.0 nm, and Octet Data Acquisition 9.0 software was activated to create an Octet program template. The first step was for Baseline 1, the second step was for loading, and the threshold was fixed to 0.5 to 1.0 nm. In the third step, which was for Baseline 2, association for 5 minutes and dissociation for 20 minutes were performed. A plate temperature was fixed to 30° C., and the prepared buffer solution was placed in order into a new 96-well black microplate according to the Octet program template. 200 μl of 1XKB used as Baseline 1 and recombinant human BCMA-Fc/His which is an antigen to be loaded were diluted to 5 μg/ml, and 200 μl of the dilution was added thereto. After adding 200 μl of 1XKB used as Baseline 2, 200 μl of the antibody to be reacted with the antigen was dispensed, and the instrument was operated. After completion of the experiment, an association constant (kon), a dissociation constant (kdis), and an equilibrium dissociation constant (KD) for each antibody were analyzed and calculated with Octet Analysis 9.0 software.

Test [2] deals with T2, monkey (Rhesus) BCMA (1-53) fused to the Fc region of human IgG1 (monkey (Rhesus); human, UniProt Q02223 1-54).
T2 construct: Sino Biological Inc. 90103-C02H; also called monkey BCMA; Monkey BCMA (1-53); not shown: Fc region of human IgG1
In words: ELISA on coated monkey (Rhesus) BCMA, antibody titrated, HRP anti-Fab detection, absorbance 450 nm. On the procedure:
(§1) Using recombinant human BCMA or monkey BCMA as an antigen, and HRP-conjugated Fab polychronal antibody reagent (Pierce, 31414) as a secondary antibody, ELISA was performed as described in Example 1.3.

Test [3] addresses T3, recombinant human BCMA (ELISA antigen, construct not specified) (human, UniProt Q02223 1-54).
T3 construct: Fc 1-51; Fc/His 1-51; Fc 4-48) was coated in these ELISAs; also called recombinant BCMA; recombinant protein
T3 sequence: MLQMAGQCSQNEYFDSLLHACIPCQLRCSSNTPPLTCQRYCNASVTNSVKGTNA
In words: ELISA on coated recombinant human BCMA, antibody titrated, HRP anti-Fab detection, absorbance 450 nm. On the procedure:
as §1

Test [4] deals with T2, monkey (Rhesus) BCMA (1-53) fused to …. In words: BLI (Octet), monkey BCMA.
Test [5] deals with T3, recombinant human BCMA (ELISA antigen, …). As to the kind of experiment: ELISA, 100 ng coated antigen. On the procedure: (§2) 100 ng of human, monkey, mouse, and rat BCMA antigens prepared in Example 1.1 were coated on the bottom of the plate, and then coated with 3% BSA to block nonspecific binding. Using the selected anti-BCMA IgG antibodies as primary antibodies, and the anti-human Fab HRP (1:20000 dilution) as a secondary antibody, ELISA assay was performed as described in Example 1.3.
(§3) Absorbancies at 450 nm measured with a microplate reader are shown in FIG. 3, and half maximal effective concentrations (EC₅₀) (nM) are shown in Table 9.

Test [6] addresses T2, monkey (Rhesus) BCMA (1-53) fused to …. As to the kind of experiment: ELISA, 100 ng coated antigen. On the procedure: as §2, §3
In test [7] the target is T4, mouse BCMA (1-49) fused to the Fc region of human IgG1 (mouse; human, UniProt O88472 1-49).
T4 construct: Sino Biological Inc. 50076-M01H; also called 50076-M01H; not shown: Fc region of human IgG1
T4 chain: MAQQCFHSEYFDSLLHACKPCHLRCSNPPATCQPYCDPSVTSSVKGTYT
In words: ELISA, 100 ng coated antigen. On the procedure:
as §2, §3

Test [8] deals with T5, rat BCMA (1-49) fused to the Fc region of human IgG1 (rat; human).
T5 construct: Sino Biological Inc. 80156-R01H; also called 80156-R01H; not shown: Fc region of human IgG1
T5 chain: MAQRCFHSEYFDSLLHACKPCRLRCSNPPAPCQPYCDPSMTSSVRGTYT
As to the kind of experiment: ELISA, 100 ng coated antigen. On the procedure:
as §2, §3

Test [9] has as its target T5, rat BCMA (1-49) fused to the Fc region …. In words: ELISA on 100 ng coated rat BCMA, antibody titrated, anti-human Fab HRP, absorbance 450 nm. On the procedure: as §2, §3
The target in test [10] is T3, recombinant human BCMA (ELISA antigen, …). In words: ELISA on 100 ng coated human BCMA, antibody titrated, anti-human Fab HRP, absorbance 450 nm. On the procedure: as §2, §3
The target in test [11] is T4, mouse BCMA (1-49) fused to the Fc …. As to the kind of experiment: ELISA on 100 ng coated mouse BCMA, antibody titrated, anti-human Fab HRP, absorbance 450 nm. On the procedure:
as §2, §3

Test [12] deals with T2, monkey (Rhesus) BCMA (1-53) fused to …. In words: ELISA on 100 ng coated rhesus BCMA, antibody titrated, anti-human Fab HRP, absorbance 450 nm. On the procedure:
as §2, §3

In test [13] the target is T3, recombinant human BCMA (ELISA antigen, …). In words: ELISA on coated recombinant human BCMA, antibody titrated, HRP anti-Fab detection, absorbance 450 nm. On the procedure:
Specific binding abilities of the anti-BCMA IgG antibodies isolated in Example 1.4 to recombinant BCMA protein were analyzed by ELISA.
as §1
This is another data set of the same source.

In test [14] the target is T6, human BCMA expressed on cell surface (H929, OPM-2, CHOK1-hBCMA cells) (human, UniProt Q02223 1-184).
T6 construct: also called cell-surface BCMA; BCMA on cell surface
T6 sequence: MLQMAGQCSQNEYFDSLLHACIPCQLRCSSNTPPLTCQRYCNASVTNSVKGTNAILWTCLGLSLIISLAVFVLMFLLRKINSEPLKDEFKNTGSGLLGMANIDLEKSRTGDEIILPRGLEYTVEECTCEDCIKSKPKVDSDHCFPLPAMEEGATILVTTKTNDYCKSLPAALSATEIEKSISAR
In words: FACS on H929 cells, 10 µg/ml antibody, anti-human Fc-FITC; open histogram shifted right of the filled control. On the procedure: (§4) Multiple myeloma cancer cells H929 (ATCC, CRL9068™) and OPM-2 cell line (DSMZ, ACC 50), which are known to express BCMA, were prepared, and human BCMA-overexpressed CHOK1-hBCMA cell line (constructed by ABIBio) were prepared.
(§5) 10 μg/ml of the seven IgG antibodies (B58, 5A6, 5D5, 5B5, 1H, 2G, and 5G) purified in Example 1.4 was added to the prepared cells, incubated at 4° C. for 1 hour, and then washed two times with a PBS buffer solution. The anti-human Fc-FITC was diluted in 1:400, incubated at 4° C. for 1 hour, and then washed with a PBS buffer solution. These processes were repeated. In FIGS. 2A and 2B, MFI indicates mean fluorescence intensity.

In test [15] the target is T6, human BCMA expressed on cell surface …. As to the kind of experiment: FACS on OPM-2 cells, 10 µg/ml antibody, anti-human Fc-FITC; open histogram shifted right of the filled control. On the procedure:
as §4, §5

Test [16] concerns the target T7, human BCMA-Fc (R&D system, 193-BC-050) (human, UniProt Q02223 1-54, limits assumed).
T7 construct: Bought construct; not shown: Fc part
T7 sequence: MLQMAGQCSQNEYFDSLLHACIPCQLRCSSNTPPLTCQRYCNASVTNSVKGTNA
In words: competition ELISA on coated human BCMA-Fc; antibody titrated and mixed with 200 ng/ml BAFF, bound BAFF detected, absorbance 450 nm. On the procedure:
Specifically, human BCMA-Fc (R&D system, 193-BC-050) was diluted using a PBS buffer, and then 100 ng of the dilution per well was coated on the ELISA plate. After the coating, the plate was emptied, and 100 μl of PBST containing 1% BSA was added to each well and incubated at 37° C. for 2 hours. The antibodies diluted at a concentration of 50 μg/ml to 0.00028 μg/ml were mixed with 10 ng/ml of APRIL protein (R&D, 5860-AP-010/CF) or 200 ng/ml of BAFF (R&D, 2149-BF-010/CF). An IgG1 antibody was used as a negative control, and a J6MO antibody was used as a comparative group.
Using anti-HA-HRP (Roche, 12013819001) or anti-His-HRP (Roche, 11965085001) as secondary antibodies, ELISA assay was performed as described in Example 1.4(1). As a comparative group, anti-BCMA monoclonal antibody J6MO (GSK) was used.

B1: anti-BCMA IgG antibody 2G (antibody, V domains shown)
VH: EVQLVESGGGLVQPGGSLRLSCAASGFTFSNYAMSWVRQAPGKGLEWVSAISSSGSTIYYADSVKGRFTISRDNSKNTLYLQMNSLRAEDTAVYYCAKAGYYGSIYAFDYWGQGTLVTVSS
VL: DIQMTQSPSSLSASVGDRVTITCRASQSISSYLNWYQQKPGKAPKLLIYATSRLQSGVPSRFSGSGSGTDFTLTISSLQPEDFATYYCQQSSSFPWTFGQGTKVEIKR
Consider B1, for which, in test [1], the dissociation constant (Kd) was 1.08 nM, the koff was found to be 0.00078 s⁻¹ and the kon was determined as 720000 M⁻¹ s⁻¹. In test [2], the binding result is “binds”. Further, in [3], the concentration for a half-maximal effect (EC50 (read off the curve)) is around 0.04 µg/mL.

B2: anti-BCMA IgG antibody 5B5 (antibody, V domains shown)
VH: EVQLLESGGGLVQPGGSLRLSCAASGFTFSGHYWSWVRQAPGKGLEWVSTVSGSGGDTFYADSVKGRFTISRDNSKNTLYLQMNSLRAEDTAVYYCARGHSVMDVWGQGTLVTVSS
VL: EIVLTQSPGTLSLSPGERATLSCRASQGIDSYVAWYQQKPGQAPRLLIYDASLRATGIPDRFSGSGSGTDFTLTISRLEPEDFAVYYCQQYNSWPITFGQGTKLEIKR
notes: also called 5B5 antibody
As for B2, the equilibrium dissociation constant (Kd) in [4] stood at 0.461 nM; in test [1], 0.202 nM. Besides, the off-rate constant (koff) amounted to 0.00221 s⁻¹ in [4] and 0.00025 s⁻¹ in test [1]. Further, the results for the kon in test [4] and in test [1] were 4.79e+06 M⁻¹ s⁻¹ and 1.24e+06 M⁻¹ s⁻¹, respectively. Moreover, the 50% effective concentration (EC50) came to 63 nM in test [5], 82 nM in [6], 110 nM in [7] and 65 nM in [8]. Also, the “EC50 (read off the curve)” value in test [9] is around 0.02 µg/mL; in [10] it was around 0.01 µg/mL; in test [11], around 0.01 µg/mL; in [12], around 0.01 µg/mL; in [13] it was around 0.1 µg/mL. The MFI was found to be 37.4 in [14] and 20.9 in [15].

B3: anti-BCMA IgG antibody B58 (antibody, V domains shown)
VH: EVQLLESGGGLVQPGGSLRLSCAASGFTFSNYDMSWVRQAPGKGLEWVSWIYPSDSSIYYADSVKGRFTISRDNSKNTLYLQMNSLRAEDTAVYYCARGPFANKYRQFDYWGQGTLVTVSS
VL: QSVLTQPPSASGTPGQRVTISCSGSSSNIGSNSVSWYQQLPGTAPKLLIYADSKRPSGVPDRFSGSKSGTSASLAISGLRSEDEADYYCGSWDYSLSGYVFGGGTKLTVL
notes: also called B58 antibody
Consider B3, for which the EC50 in test [5] worked out at 79 nM. The molecule also registered a Kd in test [1] of 0.0273 nM. The same molecule returned a koff in test [1] of 2e-05 s⁻¹. Moreover, in test [1], the association rate constant (kon) was determined as 735000 M⁻¹ s⁻¹. Also, the binding result in test [9] and in test [11] was “no binding (tested: about 30 µg/ml)” in each case. Also, the “EC50 (read off the curve)” value in test [10] was around 0.01 µg/mL; in [13], around 0.005 µg/mL. The results for the MFI in test [14] and in test [15] were 80.7 and 23.6, respectively. Moreover, the “IC50 (read off the curve)” value in test [16] is around 5 nM.

B4: anti-BCMA IgG antibody 1H (antibody, V domains shown)
VH: EVQLVESGGGLVQPGGSLRLSCAASGFTFSNYAMSWVRQAPGKGLEWVSGISHSGSSTYYADSVKGRFTISRDNSKNTLYLQMNSLRAEDTAVYYCAKHVYIIEFESLDIWGQGTLVTVSS
VL: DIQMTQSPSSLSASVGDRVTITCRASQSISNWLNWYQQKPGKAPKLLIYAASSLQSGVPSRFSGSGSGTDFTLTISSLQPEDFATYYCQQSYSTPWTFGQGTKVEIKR
Take B4: in test [1], the Kd was 1.45 nM, the koff came out at 0.000592 s⁻¹ and the kon stood at 409000 M⁻¹ s⁻¹. Moreover, the “EC50 (read off the curve)” value in [2] is around 0.2 µg/mL. In addition, the “EC50 (read off the curve)” value in test [3] was around 0.08 µg/mL.

B5: anti-BCMA IgG antibody 5G (antibody, V domains shown)
VH: EVQLVESGGGLVQPGGSLRLSCAASGFTFSNYAMSWVRQAPGKGLEWVSGISQSGSSTYYADSVKGRFTISRDNSKNTLYLQMNSLRAEDTAVYYCAKHAYIIEFESMDIWGQGTLVTVSS
VL: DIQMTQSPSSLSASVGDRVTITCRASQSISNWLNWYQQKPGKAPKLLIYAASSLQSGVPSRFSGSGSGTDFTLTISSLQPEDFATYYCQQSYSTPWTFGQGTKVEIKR
In test [1], B5 registered a dissociation constant (Kd) of 361 nM, an off-rate (koff) of 0.0143 s⁻¹ and a kon of 39700 M⁻¹ s⁻¹. Moreover, in test [2], the binding result is recorded as “binds”.

These data come from patent publication US20210284749A1 (ABL BIO, published 2021).
